# Bridge positions count the residues as written; N and C are the ends. Square brackets hold non-standard residues; d marks the D form. 1Nal = N[C@@H](Cc1cccc2ccccc12)C(=O)O; hArg = N=C(N)NCCCC[C@H](N)C(=O)O; Cit = NC(=O)NCCC[C@H](N)C(=O)O; Aze = O=C(O)[C@@H]1CCN1; Aib = CC(C)(N)C(=O)O
# Molecular target: CGRP1 receptor (CRLR/RAMP1 complex) of human neuroblastoma SK-N-MC cells (human, UniProt Q16602 23-461; O60894 27-148)
# Test: cell-based or functional assay
# CGRP1 receptor (CRLR/RAMP1 complex) of human neuroblastoma SK-N-MC cells, sequence (Q16602 23-461, chain 1 of 2): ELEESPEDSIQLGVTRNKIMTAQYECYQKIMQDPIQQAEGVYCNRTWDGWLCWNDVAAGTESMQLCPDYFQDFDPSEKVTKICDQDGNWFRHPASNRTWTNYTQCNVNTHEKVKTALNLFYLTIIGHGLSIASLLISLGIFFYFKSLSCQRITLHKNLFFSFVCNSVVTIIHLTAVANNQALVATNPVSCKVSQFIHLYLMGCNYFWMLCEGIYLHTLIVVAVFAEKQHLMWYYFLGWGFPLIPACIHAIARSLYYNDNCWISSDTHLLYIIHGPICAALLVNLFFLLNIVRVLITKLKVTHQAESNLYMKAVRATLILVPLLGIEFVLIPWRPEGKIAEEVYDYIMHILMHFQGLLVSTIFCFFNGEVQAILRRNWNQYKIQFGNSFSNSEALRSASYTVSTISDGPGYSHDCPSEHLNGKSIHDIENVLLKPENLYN
# CGRP1 receptor (CRLR/RAMP1 complex) of human neuroblastoma SK-N-MC cells, sequence (O60894 27-148, chain 2 of 2): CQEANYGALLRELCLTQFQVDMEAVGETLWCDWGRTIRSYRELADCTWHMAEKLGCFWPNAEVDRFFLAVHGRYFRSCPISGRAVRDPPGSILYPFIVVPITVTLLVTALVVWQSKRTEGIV
Binder,Peptide IC50 [nM],PEG-peptide IC50 [nM]
Ac-WVEH[hArg]LKGLLS[Cit]SGGVV[hArg]KNFVPTDVGPFAF-NH2 (lactam 3-7; SMILES CC(=O)N[C@@H](Cc1c[nH]c2ccccc12)C(=O)N[C@H](C(=O)N[C@H]1CCC(=O)NCCCC[C@@H](C(=O)NCC(=O)N[C@@H](CC(C)C)C(=O)N[C@@H](CC(C)C)C(=O)N[C@@H](CO)C(=O)N[C@@H](CCCNC(N)=O)C(=O)N[C@@H](CO)C(=O)NCC(=O)NCC(=O)N[C@H](C(=O)N[C@H](C(=O)N[C@@H](CCCCNC(=N)N)C(=O)N[C@@H](CCCCN)C(=O)N[C@@H](CC(N)=O)C(=O)N[C@@H](Cc2ccccc2)C(=O)N[C@H](C(=O)N2CCC[C@H]2C(=O)N[C@H](C(=O)N[C@@H](CC(=O)O)C(=O)N[C@H](C(=O)NCC(=O)N2CCC[C@H]2C(=O)N[C@@H](Cc2ccccc2)C(=O)N[C@@H](C)C(=O)N[C@@H](Cc2ccccc2)C(N)=O)C(C)C)[C@@H](C)O)C(C)C)C(C)C)C(C)C)NC(=O)[C@H](CC(C)C)NC(=O)[C@H](CCCCNC(=N)N)NC(=O)[C@H](Cc2c[nH]cn2)NC1=O)C(C)C) [SEQ ID NO 908],1.28,
"Ac-WVEH[Cit]LKGLLS[Cit]SGGVV[hArg]KNFVPTDVGPFAF-NH2 (lactam 3-7; also: PEG-conjugated, in most cases at Lys25) [PEG-peptide of SEQ ID NO 907]",,4.87
Ac-WVEHRLKGLLSQSGGVV[hArg]KNFVPTDVGPFAF-NH2 (lactam 3-7) [SEQ ID NO 904],2.03,
Ac-WVTHRLEGLLKQSGGVV[hArg]KNFVPTDVGPFAF-NH2 (SMILES CC(=O)N[C@@H](Cc1c[nH]c2ccccc12)C(=O)N[C@H](C(=O)N[C@H](C(=O)N[C@@H](Cc1c[nH]cn1)C(=O)N[C@@H](CCCNC(=N)N)C(=O)N[C@@H](CC(C)C)C(=O)N[C@@H](CCC(=O)O)C(=O)NCC(=O)N[C@@H](CC(C)C)C(=O)N[C@@H](CC(C)C)C(=O)N[C@@H](CCCCN)C(=O)N[C@@H](CCC(N)=O)C(=O)N[C@@H](CO)C(=O)NCC(=O)NCC(=O)N[C@H](C(=O)N[C@H](C(=O)N[C@@H](CCCCNC(=N)N)C(=O)N[C@@H](CCCCN)C(=O)N[C@@H](CC(N)=O)C(=O)N[C@@H](Cc1ccccc1)C(=O)N[C@H](C(=O)N1CCC[C@H]1C(=O)N[C@H](C(=O)N[C@@H](CC(=O)O)C(=O)N[C@H](C(=O)NCC(=O)N1CCC[C@H]1C(=O)N[C@@H](Cc1ccccc1)C(=O)N[C@@H](C)C(=O)N[C@@H](Cc1ccccc1)C(N)=O)C(C)C)[C@@H](C)O)C(C)C)C(C)C)C(C)C)[C@@H](C)O)C(C)C) [SEQ ID NO 903],3.5,
Ac-WVEHRLKGLLS[Cit]SGGVV[hArg]KNFVPTDVGPFAF-NH2 (lactam 3-7) [SEQ ID NO 906],1.15,
"Ac-[Aib]WVEH[hArg]LKGLLS[Cit]SGGVVRKNFVPTDVGPFAF-NH2 (lactam 4-8; also: PEG-conjugated, in most cases at Lys25) [PEG-peptide of SEQ ID NO 898]",,40.7
Ac-[1Nal]VEH[hArg]LKGLLS[Cit]SGGVVRKNFVPTDVGPFAF-NH2 (lactam 3-7; SMILES CC(=O)N[C@@H](Cc1cccc2ccccc12)C(=O)N[C@H](C(=O)N[C@H]1CCC(=O)NCCCC[C@@H](C(=O)NCC(=O)N[C@@H](CC(C)C)C(=O)N[C@@H](CC(C)C)C(=O)N[C@@H](CO)C(=O)N[C@@H](CCCNC(N)=O)C(=O)N[C@@H](CO)C(=O)NCC(=O)NCC(=O)N[C@H](C(=O)N[C@H](C(=O)N[C@@H](CCCNC(=N)N)C(=O)N[C@@H](CCCCN)C(=O)N[C@@H](CC(N)=O)C(=O)N[C@@H](Cc2ccccc2)C(=O)N[C@H](C(=O)N2CCC[C@H]2C(=O)N[C@H](C(=O)N[C@@H](CC(=O)O)C(=O)N[C@H](C(=O)NCC(=O)N2CCC[C@H]2C(=O)N[C@@H](Cc2ccccc2)C(=O)N[C@@H](C)C(=O)N[C@@H](Cc2ccccc2)C(N)=O)C(C)C)[C@@H](C)O)C(C)C)C(C)C)C(C)C)NC(=O)[C@H](CC(C)C)NC(=O)[C@H](CCCCNC(=N)N)NC(=O)[C@H](Cc2c[nH]cn2)NC1=O)C(C)C) [SEQ ID NO 897],2.25,
Ac-WVEH[hArg]LKGLLS[Cit]SG[Aze]VV[hArg]KNFVPTDVGPFAF-NH2 (lactam 3-7; SMILES CC(=O)N[C@@H](Cc1c[nH]c2ccccc12)C(=O)N[C@H](C(=O)N[C@H]1CCC(=O)NCCCC[C@@H](C(=O)NCC(=O)N[C@@H](CC(C)C)C(=O)N[C@@H](CC(C)C)C(=O)N[C@@H](CO)C(=O)N[C@@H](CCCNC(N)=O)C(=O)N[C@@H](CO)C(=O)NCC(=O)N2CC[C@H]2C(=O)N[C@H](C(=O)N[C@H](C(=O)N[C@@H](CCCCNC(=N)N)C(=O)N[C@@H](CCCCN)C(=O)N[C@@H](CC(N)=O)C(=O)N[C@@H](Cc2ccccc2)C(=O)N[C@H](C(=O)N2CCC[C@H]2C(=O)N[C@H](C(=O)N[C@@H](CC(=O)O)C(=O)N[C@H](C(=O)NCC(=O)N2CCC[C@H]2C(=O)N[C@@H](Cc2ccccc2)C(=O)N[C@@H](C)C(=O)N[C@@H](Cc2ccccc2)C(N)=O)C(C)C)[C@@H](C)O)C(C)C)C(C)C)C(C)C)NC(=O)[C@H](CC(C)C)NC(=O)[C@H](CCCCNC(=N)N)NC(=O)[C@H](Cc2c[nH]cn2)NC1=O)C(C)C) [SEQ ID NO 909],3.45,
WVEHRLKGELSRKGGVVXKNFVPTDVGPFAF (Ac-WVEHRLKGELSRKGGVV[hArg]KNFVPTDVGPFAF-NH2) [SEQ ID NO 901],1.02,
WVEHRLKGELSXKGGVVXKNFVPTDVGPFAF (Ac-WVEHRLKGELS[Cit]KGGVV[hArg]KNFVPTDVGPFAF-NH2) [SEQ ID NO 902],0.49,
"Ac-WVEHRLKGLLS[Cit]SGGVV[hArg]KNFVPTDVGPFAF-NH2 (lactam 3-7; also: PEG-conjugated, in most cases at Lys25) [PEG-peptide of SEQ ID NO 906]",,2.29
"Ac-WVEHRLKGLLS[hArg]SGGVV[hArg]KNFVPTDVGPFAF-NH2 (lactam 3-7; also: PEG-conjugated, in most cases at Lys25) [PEG-peptide of SEQ ID NO 905]",,3.7
"Ac-[1Nal]VEH[hArg]LKGLLS[Cit]SGGVVRKNFVPTDVGPFAF-NH2 (lactam 3-7; also: PEG-conjugated, in most cases at Lys25) [PEG-peptide of SEQ ID NO 897]",,4.1
Ac-WVEHRLKGLLS[hArg]SGGVV[hArg]KNFVPTDVGPFAF-NH2 (lactam 3-7) [SEQ ID NO 905],1.7,
Ac-[Aib]WVEH[hArg]LKGLLS[Cit]SGGVVRKNFVPTDVGPFAF-NH2 (lactam 4-8; SMILES CC(=O)NC(C)(C)C(=O)N[C@@H](Cc1c[nH]c2ccccc12)C(=O)N[C@H](C(=O)N[C@H]1CCC(=O)NCCCC[C@@H](C(=O)NCC(=O)N[C@@H](CC(C)C)C(=O)N[C@@H](CC(C)C)C(=O)N[C@@H](CO)C(=O)N[C@@H](CCCNC(N)=O)C(=O)N[C@@H](CO)C(=O)NCC(=O)NCC(=O)N[C@H](C(=O)N[C@H](C(=O)N[C@@H](CCCNC(=N)N)C(=O)N[C@@H](CCCCN)C(=O)N[C@@H](CC(N)=O)C(=O)N[C@@H](Cc2ccccc2)C(=O)N[C@H](C(=O)N2CCC[C@H]2C(=O)N[C@H](C(=O)N[C@@H](CC(=O)O)C(=O)N[C@H](C(=O)NCC(=O)N2CCC[C@H]2C(=O)N[C@@H](Cc2ccccc2)C(=O)N[C@@H](C)C(=O)N[C@@H](Cc2ccccc2)C(N)=O)C(C)C)[C@@H](C)O)C(C)C)C(C)C)C(C)C)NC(=O)[C@H](CC(C)C)NC(=O)[C@H](CCCCNC(=N)N)NC(=O)[C@H](Cc2c[nH]cn2)NC1=O)C(C)C) [SEQ ID NO 898],3.18,
Ac-WVEH[hArg]LKGLLS[Cit]SG[Aze]VVRKNFVPTDVGPFAF-NH2 (lactam 3-7) [SEQ ID NO 899],1.62,
Ac-[1Nal]VEH[hArg]LKGLLS[Cit]SGGVVRKNFVPTDVGPFAF-NH2 (lactam 3-7; SMILES CC(=O)N[C@@H](Cc1cccc2ccccc12)C(=O)N[C@H](C(=O)N[C@H]1CCC(=O)NCCCC[C@@H](C(=O)NCC(=O)N[C@@H](CC(C)C)C(=O)N[C@@H](CC(C)C)C(=O)N[C@@H](CO)C(=O)N[C@@H](CCCNC(N)=O)C(=O)N[C@@H](CO)C(=O)NCC(=O)NCC(=O)N[C@H](C(=O)N[C@H](C(=O)N[C@@H](CCCNC(=N)N)C(=O)N[C@@H](CCCCN)C(=O)N[C@@H](CC(N)=O)C(=O)N[C@@H](Cc2ccccc2)C(=O)N[C@H](C(=O)N2CCC[C@H]2C(=O)N[C@H](C(=O)N[C@@H](CC(=O)O)C(=O)N[C@H](C(=O)NCC(=O)N2CCC[C@H]2C(=O)N[C@@H](Cc2ccccc2)C(=O)N[C@@H](C)C(=O)N[C@@H](Cc2ccccc2)C(N)=O)C(C)C)[C@@H](C)O)C(C)C)C(C)C)C(C)C)NC(=O)[C@H](CC(C)C)NC(=O)[C@H](CCCCNC(=N)N)NC(=O)[C@H](Cc2c[nH]cn2)NC1=O)C(C)C) [SEQ ID NO 900],2.43,
"Ac-WVEHRLKGLLSQSGGVV[hArg]KNFVPTDVGPFAF-NH2 (lactam 3-7; also: PEG-conjugated, in most cases at Lys25) [PEG-peptide of SEQ ID NO 904]",,6.73

# Source: patent US20080020978A1 (Amgen, published 2008)
